30 sequences from the nanobody polyreactivity screen of Harvey et al. (2022) can be followed below.

The data set can be described thus: yeast display, Sf9 membrane polyspecificity reagent, FACS + sequencing; frameworks hold sequencing errors. An outline of the steps: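 Genes from sorted yeast were amplified by colony PCR, read by MiSeq 2 × 250 sequencing and filtered on CDR length. These cells carried a synthetic nanobody library in Saccharomyces cerevisiae BJ5465 and were sorted by FACS into low and high (top ~1%) gates on anti-HA and streptavidin fluorescence. Polyreactivity is labelled according to the gate of origin.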
Turning to “QVQLVESGGGLVQAGGSLRLSCAASGYIFKYNAMGWYIQAPGKERELVAAISGRGGSTYYADSVKGRFTISRDNAKNTVYLQMNSLKPEDTAVYYCNADYQARRYNYWGQGTQVTVSS”, the “polyreactivity (PSR sort gate)” value is recorded as “high polyreactivity”.

In the case of “QVQLVESGGGLVQAGGSLRLSCAASGLTFYYYAMGWYRQAPGKERELVAAISRSGGSTYYADSVKGRFTISRDNAKNTVYLQMNSLKPEDTAVYYCAAYGPASVYEVAMDYWGQGTQVTVSS”, the “polyreactivity (PSR sort gate)” value is reported as “high polyreactivity”. The result for “QVQLVESGGGLVQAGGSLRLSCAASVSTFVRYAMGWYRPAPGKDRELVAAIDGGGTTKYADSVKGRFTISRDNAKNTVYLQMNSLKTEDTAVYYCAADQVWGYDSWGQGTQVTVSS” reads “low polyreactivity”; that for “QVQLVESGGGLVQAGGSLRLSCAASGLTFSDYAMGWYRQATGKEREFVAAITRNGGSTRYADSVKGRFTISRDNAKNTVYLQMNSLKPEDTAVYYCAADWSYEYGYWGQGTQVTVSS”, “low polyreactivity”; that for “QVQLVESGGGLVQAGGSLRLSWAASGSIFQDYAMGWYRQAPGKERDLVAAISSSGTSTYYADSVKGRCTISRDNAKNTVSLQMNSLQPEDTAVFYCAAPPGRVARYDYWGQGTQVTVSS”, “low polyreactivity”. With “QVQLVESGGGLVEAGGTLRLSCAASGSIFPINAMGWYRQAPGKQWELVAAITVSDGRTYYADSVKGRFTISRDTAKNTVYLQMNSLKPEDTAVYYCAKSSHAREYYYWGQGNQVTVSS”, the “polyreactivity (PSR sort gate)” value is on record as “low polyreactivity”. In the case of “QLQLGESGGGLVQAGGSLRLSCAASGRTFKDYAMGWYREAPGKERELVAAISWSGGDTYYADSVKGRFTISRDNAKNTVYLQMNSLKPEDTAVYYCNADPSGVFFYSLEFEYWGQGTQVTVSS” it was “low polyreactivity”; in that of “QDQLVESGGGLVQAGGSLSLSCAASGSIFETYDMGWYRQAPGKERELVAAISLSGGSTYYADSVKGRFTISRDNAKNTVYLQMYSLKPEDTAVYYCASDTYYVSYGYYYWGLGTQVTVSS”, “low polyreactivity”; in that of “QVQLVESGGGLVQAGGSLRLSCADSGRIFGLNAMGWYRQAPGKEREFVAAIRWRGGSTYYADSVKGRFTISRDNAKNTVYLQMNSLKPEDTAVYYCAADRNLGVSRYGYWGQGTQVTVSS”, “high polyreactivity”. “QVQLVESGGGLVQAGGSLRLSCGASGGFFYFNAMGRYRQAPGKEREVVASITWSGGNTYYADSVKGRFTISRDNAKHTVDLQMNSLTPEDTAVYYCAADTLEYRPTYDYWGQGTQVTVSS”: the “polyreactivity (PSR sort gate)” value was “low polyreactivity”. The result for “QVQLVESGGGLVQAGGSLRISCAASGSTFGGYVLGWYRPAPGKERELVAAISRSGASTYYADSVKGRFTISRDNAKNTVYLQMNSLKPEDTAVYYCAAYQARGLDYWGQGTQVTVSS” reads “high polyreactivity”.

Take “QVQLVESGGGLVQAGGSLRLSCAASGIIFAYNAMGWYRQAPVKERELVAAISVIGGTTYYADSVKGRFTISRDNAKITVYLQMNSLKPEDTAVYYCAVDSVQYGGGYERLHDLYYWGQGTQVTVSS”: the “polyreactivity (PSR sort gate)” value was “low polyreactivity”. In the case of “QVQLVESGGGLVQAGGSLRLSCAASGSTFDYYTMGWYRQAPGKERELVAAINSSGGRTYYADSVKGRFTISRDNAKNTDYLQMNSLKPEVTAVYYCARTRSVYGYDYWGQGTQVTVSS” it was “high polyreactivity”; in that of “QVQLVESGGGLVQAGGSLRLSCAASGSIFKYYAMGWYRKAPGKERELVAAISYRVGRTYYADSVKGRFTISRDNAKNTVYLQMNSLKPEDTAVYYCNTAYLSGQEYDYWGQGTQVTVSS”, “high polyreactivity”; in that of “QVQLVESVGGLDQAGGSLRLSCAASGSTFGGYAMGWYRQAPGKERELVAAISSSGTSTYYADSVKGRFTISRDNAKNTVYLQMNSLKPEDNAVYYCATDFSFFSRFDYWGQGTQVTVSS”, “low polyreactivity”. Regarding “QVQLVESGGGLVQAGGSLRLSCAASGFTLNAYAMGWYRQAPGKERELVAAISRNGGRTYYADSVKGRFTISRDNAKNTVYLQMNSLKPEDTAVYYCNAVSGTIARPYDPYDYWGQGTQVTVSS”, the “polyreactivity (PSR sort gate)” value is “high polyreactivity”. The result for “QVQLVESGGGLVQAGGSLRLSCAASGSTFNINGMGWYRQAPGKERELVASITGSGGNTYYADSVKGRFTISRDNAKNTVYLQMNSLKPEDTAVYYCNTTLYTGQPGRTFDYWGQGTQVTVSS” reads “low polyreactivity”. For “QVQLVESGGGLVQAGGSLRLSCAASGRTFRKYGMGWYRQAPGKERELVAAITRSGGSTYYADSVKGRFTISRDNAKHTVYLQMNSLKPEDTSVSYCARSPVVVGSFLSYDYWGQGTQVTVSS”, the “polyreactivity (PSR sort gate)” value is “high polyreactivity”.

In the case of “QGQLVESGGGLVQAGGSLRLSCAASGSTFAYYAMGWYRQAPGKERELVAAINTTTGSTFYADSVKGRFTISRDNAKNTVYLQMNSLKPEDTAGYYCAAGVTGPSDDYDYWGQGTQVTVSS”, the “polyreactivity (PSR sort gate)” value is listed as “low polyreactivity”. “QVQLVESGGGLVQAGGSLRLSCAASGFIFYSNAMGWYRPAPGKERELVAAISWGGGRTYYADSVKGRFTISRDNAKNTVYLQMNSLKPEDTAVYYCAAAGYHSGKGGGYWGQGTQVTVSS”: the “polyreactivity (PSR sort gate)” value is on record as “high polyreactivity”. Consider “QVQLVESGGGLVQAGGSLRLSCAASGSTFFRYTMGWYRQAPGKERELVAAITSGGGTDYADSVKGRFTISRDNGKNTVYLQMNSLKPDDTAVYYCAVILSWRDYYLYWRGSWRDDYWGQGTQVSVSS”, for which the “polyreactivity (PSR sort gate)” value is “low polyreactivity”. In the case of “QDQLVESGGGVVQAGGSLRLSCAASGSIFAYNAMGWYRQAPGKERELVAAITDSGGSTFYADSVKGRFTISRDNAKNTVYLQMNSLKPEDTAVYYCATSGDRLVWGQGTQVTVSS” it was “low polyreactivity”. The result for “QVQLVESGGGLVQAGGSLRLSCAASGIIFYSYAMGWYRQAPGKERELVAAISRSSGRTYYADSVKGRFTISRDNAKNTVYLQMNSLKPEDTAVYYCATDYYYYPWEYDYWGQGTQVTVSS” reads “high polyreactivity”; that for “QVQLVESGGGLVQAGGSLRLSCAASGNTFYGYSMGWYRQAPGKERELVASITLSGDSTYYADSVKGRFTISRDNAKNTVYLQMNSLKPEDTAVYYCARRSRESYEYDYWGQGTQVTVSS”, “low polyreactivity”; that for “QVQLVESGGGLVQAGGSLRLSCAASGSTFSTYAMGWYRQAPGKERELVARITRSDTGTYYADSVKGRFTISRDNAKNTVYLQMNSLKPEDTAVYYCAADGWYDDSGWYYGYDYWGQGTQVTVSS”, “low polyreactivity”. The result for “QVQLVESGGGLVQAGGSLRLSCAASGRTFRYYAMGWYRQAPGKEREFVAAITKRGGSTYYADSVKGRFTISRDNAKNTVYLQMNSLKPEDTAVYYCAAYPAAQFSTFSYDSWGQGTQVTVSS” reads “high polyreactivity”.

For “QVQLVESGGGLVQAGGSLRLSCAASGRIFSIYAMGWYRQAPGKERELVAAIRSVGDTNYADSVKGRFTISRDNAKNTVYLQMNSLNPEDTAVYYCAAGTSDGGYHYDFWGQGSQVTVSS”, the “polyreactivity (PSR sort gate)” value is on record as “high polyreactivity”.

In the case of “QVQLVESGGGLVQAGGSLRLSCAASGSTFGGNAMGWYRQAPGKERELVAAISSGGTTNYADSVKGRFTISRDNAKNTVDLQMNSLKPEDTAVYYCNKPHRWPQAGYGYWGQGTQVTVSS”, the “polyreactivity (PSR sort gate)” value was “high polyreactivity”. For the sequence “QVQLVESGGGLVQAGGSLRLSCAASGFTFPPYAMGWYRQAPGKERELVAAITSSGGRTYYADSVKGRFTISRDNAKNTVYLQMNSLKPEDTAVYYCAAYGRFARMNYWGQGTQVTVSS”, the “polyreactivity (PSR sort gate)” value is given as “high polyreactivity”. For “QVQLVESGGGLVQAGGSLRLSCAASGSIFYAYVMGWYRQAPGKERELVAAISSRGGSTHYADSVKGRFTISRDNAKNTVYLQMNSLKPEDTAVYYCAAARGKDGYWGQGTQVTVSS”, the “polyreactivity (PSR sort gate)” value is “high polyreactivity”.
